B1: LINE1-full (parent)
chain: UACGUAGGUGGUUUUCCCCUGAUAGUGCUAAGGGGGCCUGGAAGUUUGGACUGGGCAGAGCUCAACACAGCGUGGCAAAGUGGCUGUGGCUAGACUGCCUCUCUGGAUUCCUCGUCACUCAGCAGGGCAUCUCUGAGAGAAAUGCC

Variants of: B1
Test: self-cleavage, relative activity (ratio to wild type); higher = more cleavage; in vitro, sequencing; the parent is a self-cleaving ribozyme

Variant | self-cleavage
U81C U91A | 0.56
U81C U96A | 0.1
U81C U96C | 0.2
U81C U100C | 1.29
U81C U104C | 1.48
U81C U109C | 0.38
U81C U112C | 1.26
U81C U119C | 1.84
U81C U130A | 1.27
U81C U130C | 1.88
U81C U134A | 0.94
U81C U134C | 1.36
U81C U143C | 1.61
U81G A124U | 1.75
U81G A140U | 1.35
U81G A141G | 1.85
U81G C113U | 1.99
U81G G122U | 1.42
U81G U104C | 0.26
U81G U115A | 1.28
U81G U134G | 1.73
G82A | 1.75
G82A A92G | 0.04
G82A A94G | 0.26

Variant | self-cleavage
G82A A117G | 1.77
G82A A129G | 2.28
G82A A129U | 1.21
G82A A136G | 2.28
G82A A141G | 1.8
G82A A142G | 2.1
G82A C99A | 0.78
G82A G114C | 3
G82A U85A | 0.14
G82A U85C | 0.23
G82A U91C | 0.94
G82A U102C | 1.57
G82A U104C | 0.83
G82A U134G | 1.08
G82U | 1.52
G82U A117U | 1.3
G82U A129G | 1.54
G82U U112C | 1.18
G83A A92U | 0.27
G83A A121C | 0.67
G83A A124U | 0.79
G83A A140G | 0.49
G83A A142G | 0.97
G83A C90U | 0.06

Variant | self-cleavage
G83A G127A | 0.52
G83A G144U | 1.55
G83A U96C | 0.11
G83A U100C | 1.21
G83A U109A | 0.96
G83A U130C | 1.13
G83A U132A | 1.09
G83A U134C | 1.13
G83C U132A | 0.73
G83C U143G | 1.08
G83U A141G | 0.99
G83U U102C | 0
G83U U108C | 1.07
G83U U119A | 0.65
G83U U143C | 1.01
C84A A136U | 0.19
C84A A138G | 0.05
C84A A140G | 0.13
C84A C131A | 0.18
C84A G93U | 0.05
C84A U112C | 0.16
C84A U130A | 0.07
C84G A140G | 0.12
C84G U96A | 0.09

Variant | self-cleavage
C84G U104C | 0.11
C84G U132C | 0.11
C84U A117G | 0.2
C84U A121U | 0.11
C84U A124U | 0.18
C84U A140G | 0.07
C84U A141G | 0.14
C84U A142G | 0.12
C84U C98G | 0.08
C84U G114U | 0.15
C84U U85C | 0
C84U U96C | 0.04
C84U U100A | 0.07
C84U U102C | 0.16
C84U U108C | 0.15
C84U U109C | 0.1
C84U U119C | 0.12
U85A | 0.09
U85A A92G | 0.13
U85A A92U | 0.11
U85A A94G | 0.15
U85A A107G | 0.08
U85A A117C | 0.07
U85A A117G | 0.15

Variant | self-cleavage
U85A A117U | 0.09
U85A A124U | 0.08
U85A A129G | 0.07
U85A A129U | 0.12
U85A A136G | 0.11
U85A A138G | 0.07
U85A A138U | 0.06
U85A A140G | 0.08
U85A A140U | 0.09
U85A A141G | 0.07
U85A A141U | 0.07
U85A A142G | 0.08
U85A C101U | 0.06
U85A C111A | 0.06
U85A C120A | 0.07
U85A C120U | 0.2
U85A C128G | 0.06
U85A G93A | 0.05
U85A G93U | 0.08
U85A G114A | 0.08
U85A G126U | 0.07
U85A U91A | 0.11
U85A U91C | 0.04
U85A U96A | 0.12

Variant | self-cleavage
U85A U96C | 0.09
U85A U100A | 0.05
U85A U102C | 0.13
U85A U104A | 0.03
U85A U104C | 0.13
U85A U104G | 0.02
U85A U108A | 0.17
U85A U108C | 0.12
U85A U108G | 0.12
U85A U109A | 0.06
U85A U109C | 0.07
U85A U115A | 0.09
U85A U115C | 0.13
U85A U132A | 0.08
U85A U134G | 0.12
U85C | 0.18
U85C A92U | 0
U85C A117C | 0.25
U85C A136C | 0.24
U85C A136G | 0.2
U85C A136U | 0.24
U85C A138G | 0.17
U85C A138U | 0.13
U85C A140U | 0.16

Variant | self-cleavage
U85C A142G | 0.17
U85C A142U | 0.21
U85C C95U | 0.06
U85C C99A | 0.16
U85C C118U | 0.1
U85C C123G | 0.15
U85C C146A | 0.48
U85C C146U | 0.27
U85C G89A | 0.03
U85C G93U | 0.06
U85C G105U | 0.14
U85C G122A | 0.14
U85C G139A | 0.2
U85C G144U | 0.19
U85C U87A | 0.07
U85C U87C | 0.04
U85C U91C | 0.06
U85C U96A | 0.07
U85C U96C | 0.2
U85C U100C | 0.28
U85C U102C | 0.12
U85C U104A | 0.08
U85C U104C | 0.18
U85C U108C | 0.22

Variant | self-cleavage
U85C U109A | 0.12
U85C U109C | 0.17
U85C U112A | 0.19
U85C U112C | 0.18
U85C U115C | 0.21
U85C U132C | 0.24
U85C U132G | 0.28
U85C U143A | 0.19
U85C U143C | 0.1
U85G | 0.13
U85G A94G | 0.36
U85G A138U | 0
U85G A140G | 0.19
U85G C128U | 0.39
U85G U109C | 0
U85G U132C | 0.14
U85G U134C | 0.16
U85G U143C | 0.13
G86A | 0.08
G86A A94G | 0.06
G86A A124G | 0.02
G86A A138G | 0.13
G86A A140G | 0.03
G86A A141U | 0.13

Variant | self-cleavage
G86A C118U | 0.09
G86A G127C | 0.09
G86A U87C | 0.04
G86A U91C | 0.07
G86A U102C | 0.18
G86A U108A | 0.02
G86A U109G | 0.07
G86A U112A | 0.08
G86A U115C | 0.12
G86A U119A | 0.16
G86A U134C | 0.08
G86C | 0.06
G86U | 0.1
G86U A129U | 0.09
G86U U100C | 0.16
U87A | 0.08
U87A A92G | 0.13
U87A A117G | 0.09
U87A A121G | 0.1
U87A A121U | 0.09
U87A A124U | 0.08
U87A A129U | 0.08
U87A A136G | 0.08
U87A A138G | 0.07

Variant | self-cleavage
U87A A140U | 0.11
U87A C99U | 0.12
U87A C110A | 0.06
U87A C113A | 0.06
U87A C131U | 0.08
U87A G88C | 0.08
U87A G97U | 0.08
U87A G114A | 0.05
U87A G126U | 0.08
U87A G127A | 0.04
U87A G127U | 0.06
U87A U91C | 0.07
U87A U96A | 0.07
U87A U96C | 0.12
U87A U100C | 0.09
U87A U109A | 0.08
U87A U112C | 0.07
U87A U115G | 0.13
U87A U119A | 0.08
U87A U119C | 0.07
U87A U134A | 0.13
U87C | 0.22
U87C A94G | 0.14
U87C A94U | 0.05

Variant | self-cleavage
U87C A117C | 0
U87C A117G | 0.41
U87C A117U | 0.19
U87C A121U | 0.2
U87C A129G | 0.07
U87C A129U | 0.15
U87C A136C | 0.16
U87C A136G | 0.24
U87C A138G | 0.28
U87C A141U | 0.2
U87C A142G | 0.25
U87C C90U | 0.07
U87C C103A | 0.1
U87C C110A | 0.06
U87C C120A | 0.18
U87C C145A | 0.27
U87C C146A | 0.2
U87C G88A | 0.09
U87C G97A | 0.12
U87C G106A | 0.21
U87C G106U | 0.26
U87C G122U | 0.3
U87C G137A | 0.5
U87C G137U | 0.27

Variant | self-cleavage
U87C G139A | 0.14
U87C G144A | 0.24
U87C U91G | 0.08
U87C U96A | 0.09
U87C U100A | 0.1
U87C U100C | 0.26
U87C U102A | 0.12
U87C U109A | 0.15
U87C U109C | 0.27
U87C U112A | 0.16
U87C U112C | 0.23
U87C U119A | 0.19
U87C U119C | 0.24
U87C U119G | 0
U87C U132C | 0.19
U87C U134C | 0.11
U87C U134G | 0.31
U87C U143A | 0.22
U87C U143C | 0.21
U87G | 0.21
U87G A94U | 0.13
U87G A107G | 0
U87G A117G | 0
U87G A121U | 0.2

Variant | self-cleavage
U87G A124C | 0.32
U87G A129G | 0.27
U87G A138G | 0.14
U87G A138U | 0.48
U87G A140G | 0.19
U87G A141G | 0
U87G U104A | 0.2
U87G U108C | 0.16
U87G U112C | 0.05
U87G U115A | 0.24
U87G U130C | 0.41
G88A A107C | 0.03
G88A A117G | 0.07
G88A A121G | 0.06
G88A A136G | 0.07
G88A A138G | 0.06
G88A A140U | 0.07
G88A C110U | 0.04
G88A C120U | 0.09
G88A C146U | 0.07
G88A G114A | 0.08
G88A G122A | 0.07
G88A U91C | 0.05
G88A U96C | 0.02

Variant | self-cleavage
G88A U100A | 0.07
G88A U104C | 0.15
G88A U130C | 0.01
G88A U134A | 0.06
G88A U134C | 0.08
G88A U143A | 0.07
G88C A129G | 0.12
G88C A140G | 0
G88C G105A | 0.06
G88C G125C | 0.06
G88C U132C | 0.09
G88U A138G | 0.06
G88U U100C | 0.04
G88U U104C | 0.05
G89A | 0.04
G89A A92U | 0.07
G89A A107G | 0.01
G89A A117U | 0.04
G89A A121G | 0.09
G89A A140G | 0.06
G89A C133U | 0.03
G89A G137A | 0.05
